Measurements taken from patent publication US20020103133.

Key:
acetyl-P-L-G-L-L-A-L-Dox = molecular target: T1, acetyl-P-L-G-L-L-A-L-Dox
T1 chain: XLGLLAL

[1] = molecular target: T2, succinyl-P-L-G-Hof-Y-L-Dox
T2 chain: XLGXYL

acetyl-P-L-G-L-Y-L-Dox = molecular target: T3, acetyl-P-L-G-L-Y-L-Dox
T3 chain: XLGLYL

acetyl-P-L-G-L-A-L-Dox = molecular target: T4, acetyl-P-L-G-L-A-L-Dox
T4 chain: XLGLAL

acetyl-P-L-G-L-Y-A-L-Dox = molecular target: T5, acetyl-P-L-G-L-Y-A-L-Dox
T5 chain: XLGLYAL

acetyl-P-L-G-Hof-Y-L-Dox = molecular target: T6, acetyl-P-L-G-Hof-Y-L-Dox
T6 chain: XLGXYL

acetyl-G-P-L-G-L-Y-Dox = molecular target: T7, acetyl-G-P-L-G-L-Y-Dox
T7 chain: XPLGLY

acetyl-P-L-G-L-L-Dox = molecular target: T8, acetyl-P-L-G-L-L-Dox
T8 chain: XLGLL

acetyl-G-P-L-G-L-L-Dox = molecular target: T9, acetyl-G-P-L-G-L-L-Dox
T9 chain: XPLGLL

acetyl-P-L-G-L-A-A-L-Dox = molecular target: T10, acetyl-P-L-G-L-A-A-L-Dox
T10 chain: XLGLAAL

[2] = molecular target: T11, acetyl-P-L-G-Hof-Orn-L-Dox
T11 chain: XLGXXL

acetyl-P-L-G-L-L-S-L-Dox = molecular target: T12, acetyl-P-L-G-L-L-S-L-Dox
T12 chain: XLGLLSL

acetyl-G-P-L-G-L-A-L-Dox = molecular target: T13, acetyl-G-P-L-G-L-A-L-Dox
T13 chain: XPLGLAL

B1: Neprilysin (protein)
chain: YDDGICKSSDCIKSAARLIQNMDATTEPCTDFFKYACGGWLKRNVIPETSSRYGNFDILRDELEVVLKDVLQEPKTEDIVAVQKAKALYRSCINESAIDSRGGEPLLKLLPDIYGWPVATENWEQKYGASWTAEKAIAQLNSKYGKKVLINLFVGTDDKNSVNHVIHIDQPRLGLPSRDYYECTGIYKEACTAYVDFMISVARLIRQEERLPIDENQLALEMNKVMELEKEIANATAKPEDRNDPMLLYNKMTLAQIQNNFSLEINGKPFSWLNFTNEIMSTVNISITNEEDVVVYAPEYLTKLKPILTKYSARDLQNLMSWRFIMDLVSSLSRTYKESRNAFRKALYGTTSETATWRRCANYVNGNMENAVGRLYVEAAFAGESKHVVEDLIAQIREVFIQTLDDLTWMDAETKKRAEEKALAIKERIGYPDDIVSNDNKLNNEYLELNYKEDEYFENIIQNLKFSQSKQLKKLREKVDKDEWISGAAVVNAFYSSGRNQIVFPAGILQPPFFSAQQSNSLNYGGIGMVIGHEITHGFDDNGRNFNKDGDLVDWWTQQSASNFKEQSQCMVYQYGNFSWDLAGGQHLNGINTLGENIADNGGLGQAYRAYQNYIKKNGEEKLLPGLDLNHKQLFFLNFAQVWCGTYRPEYAVNSIKTDVHSPGNFRIIGTLQNSAEFSEAFHCRKNSYMNPEKKCRVW
**Q.** Which kcat/Km (cleavage of conjugate, HPLC) (acetyl-P-L-G-L-L-A-L-Dox) does the source give for B1 here?
**A.** Its kcat/Km (cleavage of conjugate, HPLC) is 1e+08 M⁻¹ s⁻¹.

**Q.** What about the kcat/Km (cleavage of conjugate, HPLC) [1] of the same protein?
**A.** The kcat/Km (cleavage of conjugate, HPLC) was under 1e+06 M⁻¹ s⁻¹.

**Q.** And the kcat/Km (cleavage of conjugate, HPLC) (acetyl-P-L-G-L-Y-L-Dox)?
**A.** Its kcat/Km (cleavage of conjugate, HPLC) is 2.2e+07 M⁻¹ s⁻¹.

**Q.** And the kcat/Km (cleavage of conjugate, HPLC) (acetyl-P-L-G-L-A-L-Dox)?
**A.** Its kcat/Km (cleavage of conjugate, HPLC) is 4.9e+07 M⁻¹ s⁻¹.

**Q.** What about the kcat/Km (cleavage of conjugate, HPLC) (acetyl-P-L-G-L-Y-A-L-Dox) of the same protein?
**A.** The kcat/Km (cleavage of conjugate, HPLC) was 3.88e+08 M⁻¹ s⁻¹.

**Q.** What about the kcat/Km (cleavage of conjugate, HPLC) (acetyl-P-L-G-Hof-Y-L-Dox) of the same protein?
**A.** The kcat/Km (cleavage of conjugate, HPLC) was under 1e+06 M⁻¹ s⁻¹.

**Q.** What about the kcat/Km (cleavage of conjugate, HPLC) (acetyl-G-P-L-G-L-Y-Dox) of the same protein?
**A.** The kcat/Km (cleavage of conjugate, HPLC) was 1.9e+07 M⁻¹ s⁻¹.

**Q.** What about the kcat/Km (cleavage of conjugate, HPLC) (acetyl-P-L-G-L-L-Dox) of the same protein?
**A.** Its kcat/Km (cleavage of conjugate, HPLC) is 2.2e+07 M⁻¹ s⁻¹.

**Q.** What about the kcat/Km (cleavage of conjugate, HPLC) (acetyl-G-P-L-G-L-L-Dox) of the same protein?
**A.** Its kcat/Km (cleavage of conjugate, HPLC) is 2e+07 M⁻¹ s⁻¹.

**Q.** What about the kcat/Km (cleavage of conjugate, HPLC) (acetyl-P-L-G-L-A-A-L-Dox) of the same protein?
**A.** The kcat/Km (cleavage of conjugate, HPLC) was 1.2e+08 M⁻¹ s⁻¹.

**Q.** What about the kcat/Km (cleavage of conjugate, HPLC) [2] of the same protein?
**A.** The kcat/Km (cleavage of conjugate, HPLC) was under 1e+06 M⁻¹ s⁻¹.

**Q.** And the kcat/Km (cleavage of conjugate, HPLC) (acetyl-P-L-G-L-L-S-L-Dox)?
**A.** The kcat/Km (cleavage of conjugate, HPLC) was 8.2e+07 M⁻¹ s⁻¹.

**Q.** What about the kcat/Km (cleavage of conjugate, HPLC) (acetyl-G-P-L-G-L-A-L-Dox) of the same protein?
**A.** Its kcat/Km (cleavage of conjugate, HPLC) is 4.2e+07 M⁻¹ s⁻¹.

B2: MMP-2 (protein)
chain: YNFFPRKPKWDKNQITYRIIGYTPDLDPETVDDAFARAFQVWSDVTPLRFSRIHDGEADIMINFGRWEHGDGYPFDGKDGLLAHAFAPGTGVGGDSHFDDDELWTLGEGQVVRVKYGNADGEYCKFPFLFNGKEYNSCTDTGRSDGFLWCSTTYNFEKDGKYGFCPHEALFTMGGNAEGQPCKFPFRFQGTSYDSCTTEGRTDGYRWCGTTEDYDRDKKYGFCPETAMSTVGGNSEGAPCVFPFTFLGNKYESCTSAGRSDGKMWCATTANYDDDRKWGFCPDQGYSLFLVAAHEFGHAMGLEHSQDPGALMAPIYTYTKNFRLSQDDIKGIQELYGASPDIDLGTGPTPTLGPVTPEICKQDIVFDGIAQIRGEIFFFKDRFIWRTVTPRDKPMGPLLVATFWPELPEKIDAVYEAPQEEKAVFFAGNEYWIYSASTLERGYPKPLTSLGLPPDVQRVDAAFNWSKNKKTYIFAGDKFWRYNEVKKKMDPGFPKLIADAWNAIPDNLDAVVDLQGGGHSYFFKGAYYLKLENQSLKSVKFGSIKSDWLGC
**Q.** Which kcat/Km (cleavage of conjugate, HPLC) (acetyl-P-L-G-L-L-A-L-Dox) does the source give for B2 here?
**A.** The kcat/Km (cleavage of conjugate, HPLC) was 6.3e+07 M⁻¹ s⁻¹.

**Q.** And the kcat/Km (cleavage of conjugate, HPLC) [1]?
**A.** Its kcat/Km (cleavage of conjugate, HPLC) is over 1.2e+08 M⁻¹ s⁻¹.

**Q.** And the kcat/Km (cleavage of conjugate, HPLC) (acetyl-P-L-G-L-Y-L-Dox)?
**A.** The kcat/Km (cleavage of conjugate, HPLC) was 8.8e+07 M⁻¹ s⁻¹.

**Q.** What about the kcat/Km (cleavage of conjugate, HPLC) (acetyl-P-L-G-L-A-L-Dox) of the same protein?
**A.** The kcat/Km (cleavage of conjugate, HPLC) was 5.3e+07 M⁻¹ s⁻¹.

**Q.** What about the kcat/Km (cleavage of conjugate, HPLC) (acetyl-P-L-G-L-Y-A-L-Dox) of the same protein?
**A.** The kcat/Km (cleavage of conjugate, HPLC) was 1.9e+08 M⁻¹ s⁻¹.

**Q.** What about the kcat/Km (cleavage of conjugate, HPLC) (acetyl-P-L-G-Hof-Y-L-Dox) of the same protein?
**A.** Its kcat/Km (cleavage of conjugate, HPLC) is over 1.2e+08 M⁻¹ s⁻¹.

**Q.** And the kcat/Km (cleavage of conjugate, HPLC) (acetyl-G-P-L-G-L-Y-Dox)?
**A.** Its kcat/Km (cleavage of conjugate, HPLC) is 4e+07 M⁻¹ s⁻¹.

**Q.** And the kcat/Km (cleavage of conjugate, HPLC) (acetyl-P-L-G-L-L-Dox)?
**A.** The kcat/Km (cleavage of conjugate, HPLC) was 1.8e+07 M⁻¹ s⁻¹.

**Q.** What about the kcat/Km (cleavage of conjugate, HPLC) (acetyl-G-P-L-G-L-L-Dox) of the same protein?
**A.** Its kcat/Km (cleavage of conjugate, HPLC) is 3e+07 M⁻¹ s⁻¹.

**Q.** What about the kcat/Km (cleavage of conjugate, HPLC) (acetyl-P-L-G-L-A-A-L-Dox) of the same protein?
**A.** Its kcat/Km (cleavage of conjugate, HPLC) is 1.1e+08 M⁻¹ s⁻¹.

**Q.** And the kcat/Km (cleavage of conjugate, HPLC) [2]?
**A.** Its kcat/Km (cleavage of conjugate, HPLC) is 1.36e+08 M⁻¹ s⁻¹.

**Q.** What about the kcat/Km (cleavage of conjugate, HPLC) (acetyl-P-L-G-L-L-S-L-Dox) of the same protein?
**A.** Its kcat/Km (cleavage of conjugate, HPLC) is 1.03e+08 M⁻¹ s⁻¹.

**Q.** What about the kcat/Km (cleavage of conjugate, HPLC) (acetyl-G-P-L-G-L-A-L-Dox) of the same protein?
**A.** Its kcat/Km (cleavage of conjugate, HPLC) is 8.6e+07 M⁻¹ s⁻¹.
